Source: the domain aggregation screens of Martell et al. (2025)

assay: soluble fraction after stress (log2 fold change); higher = more stays soluble; pooled small domains, quantitative proteomics; details: stress: pH 4
In short: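 After pH 4 stress, pooled custom libraries of small protein domains were quantified with high-throughput quantitative proteomics. Aggregation propensity is taken from the fold change in each domain's soluble amount following the acid stress. The scale is log2, where higher values mean more stayed soluble.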

Row | Sequence | soluble fraction (log2)
1 | HMTTAASIGRLVRDARKQRGLTQHELASLLSTSQSAIHRIESGNQNLSLEMINRIAQALESPLIVPGG | -0.343
2 | HMRLTIAQLSEKTGVPERTIRYYIDRGLVPSAHGERRGAWYDTVHLEPLLRIQQWREAGLSLEAIADLLR | -1.17
3 | HMQENDLGAVEKIVDDVLHDPKNAQAVADFKAGSEKVLGFLTGQVMKASRGKANPSVVQEVLRQKLKN | -0.0461
4 | HMDVQTVTVIENVNVRKSASENGQKLGLAYTGEKLELLMKQADGWTRVKYNGETAYVKSDYV | -0.0843
5 | HMSKSPELMEKIKEFAEGYFRENGETPSNKTIAGAMGMGRSTVYYYLVDMAQRGMISYENGVISTEKIRKL | -0.65
6 | HMGKTEETLQMEKLVEALRRSGRMKYEDAYRIVYAAFPDAKDFEGMLSGAIRAGFIELQMGNDGAFLRAL | -0.67
7 | HMAPVEEWAKASVMEDPTLVTETMARIFAQQGQIGKARKAYRHLALTYPAKSTYFAAQLKKLNQR | 0.355
8 | HMGVAAPMPGTITDVRVKVGDRVQPRTVVMMLEAMKMENEIFAGRAGVVSQVAVEKGASVNTGDLLISIDP | 0.325
9 | HMARTTIATPWDKINDLLQGGLGNGDFGLIFGNPGGGKSWSLVALGGFAVKLGYNVIHYTLE | -1.35
10 | HMSSFIEAIKQSGTDSLDVIMKNGRVYRYVGIDADRLGYLLEPHQQKLSLEESIGRFYIDYIKGIYEAIE | -1.05
11 | HMLQSGSDYLIEQVRMYTATGQREYMDNYFEELNTTRRRENALEYFAEHYGDNDAFTLLKSAMTTSQN | -0.691
12 | HMQIIGEQNQKDFIALFGAILRMRNLLLSFDEFKGNELISERDLQDYLGRYQDLRDEWRNKRRER | -0.654
13 | HMSTQYKTGHYKTTDALNLRASYSTSSNVLLTIPKGKTIVVTRVHNNEWGQVEYNGKTGWIYLEYTAYTES | -0.387
14 | HMGQDTTIVVRRGESLLGIAARLLPATDFYTTGELAEGIRTASGMENDRLIPGQTLRVPLNSG | 0.0588
15 | HMENVRKTEWVTISNDKSQTRTTVYFESGNQKLDKHPQIQGFEYQRTYVEGGVKYYLFVEKGTKLDE | 0.0865
16 | HMTPDVHRGDTITVSLRAGAIRVRVPAKALEEGAAGGEIRVVNLTGGREYRVRVTGPGTAEAIL | 0.0112
17 | HMRRIADVVPEQLTREEAEELLETLAEQGEIHEEQALLARYILEQSLQGVAPEVEPLIRAKLLAGILMVY | -1.67
18 | HMAPEEIPLDRVVRLVEQGRVESIVVTGERLEVTLQNGTVYGSTKENGVGFMETLDRYQVPLEQRDFSYEV | -0.72
19 | HMASFGDLSGLKRTYPPQGLPDASRIADFLIARNEGDLSVEQVKALERFLFEHPDHERTARLVAATRVPA | -0.115
20 | HMSNETLFEFFEKNISQLTPTLVDNINRSLAVHSKKNVKLAIMIAAKSNVRNWNYISAILNRWEKE | -1.21
21 | HMGNNTEITYSEFIRQAEAGNVQYVTVDGEKLLISATDGKSYYTINPRDDQMTDRLLNSGVEIRAEPQ | -0.482
22 | HMTESSTYFEKIGTEISQFKSIPKNIDVIIIEKLIYSGIIKKVDNEENSRVYYILTRKGRYFWKRYVLS | -0.0659
23 | HMDSIKDQIYQILKEDILTGELRSGEQLVEQTIAARFNTSRSPVREAIKQLTGDGLVINITNKGTFVK | -0.0915
24 | HMNVNTNTILKSLMETYPDSTVFKKAEIVSIANSLGFKKSDYSPLTSTDNRTDVRGQYDLSAVIIPMRESN | -0.11
25 | HMRTLGADLRALRKARGLTLAGMADNMGKSVGWMSQIERDISEPSISDLRALAKLLDVSVSSLFR | -0.557
26 | HMQSYHVGDKVTIKNSASHWATGQSIYNGVKGHTYKIIQTNGHKLLLDQVISWINDGDVYKAGS | 0.0872
27 | HMVSMSFDDYVNDAKEYESEGDKDKAYNSYLEAYKLNKSSEEVLDYLIDNTEDVTLKLNYVYEYLDL | -0.32
28 | HMSQNISSTKLIPENIKIGMSVFVIPLQQKGIVQSLPNRSKEVLVQIGNAKINVKINNLKLIED | -0.238

Row | Sequence | soluble fraction (log2)
29 | HMPNYVEMLRLHEAGFSLRQIAKLVSSGRNTVTRTVNIAQEKELSYEEIAQWSSEELENMFKPD | -0.515
30 | HMNHGDATTETQAEIMAILSDMKPHPITELNTIKRPYEQIDTALTYLINEEKIYRMDGMIFIG | -0.915
31 | HMGKLQFREKLNGILELGKEKHRVLTMEDVEKYFEEDALSEEQMELVYDYLLSQKIAVTGYVKK | 0.414
32 | HMALSETIYRLRTEHGLSQGDLAAELDVSRQSISKWETGSSVPELDKLVAMSRLFGVSLDELVLGE | -0.584
33 | HMHDLTERQREILQTLASGKMALREILSILSQPPSLRTLRDELYHLKRIGLVDTMGYGRGATWFLTQ | -0.13
34 | HMAKRINVKLIMELSAGGLTQNEIASSRHFSKTSVNLVLKTARELNVSAADLREMSPEEAYRLFFPEK | -0.0837
35 | HMYMWQVEDLIRANGLDIERIKDSIIRPYELDEERKRELTQWYEDLIDMMRREGVAQSGHLQIN | -2.24
36 | HMELKFIGEAVNNPKRPLIAILGGAKVSDKIGVIENLLTKADKILIGGAMMFTFLKAEGKNIGTSLVED | -0.0167
37 | HMEPLPDIPRGTRVSHQTAPADGDMPERRETGWTMTEPIRAQDGLAYVGVSVYGRGVVMLPVNSLSII | -0.557
38 | HMADLTEEQKTLFRLIRDLQPVSSKTLLENSGFTRSTQTRLLNGLIEKQIVIRTGNGPATRYSLR | -0.307
39 | HMTRLSSREAQVISLVRDGMTNQQIAERLELSPLTIKNHVQNILRKLDVSNRAQAVAKAVKARLI | 0.00472
40 | HMQEINLIGVTGNDLERSALVKLLDGEIIKLSVGDNLNGGRVVDISAVTLTYLKSGQSITLKLPK | 0.116
41 | HMQKYEDIINVTRERLQNKFYSQTVIPTDDDIYIWLDKVAILEEIKLSKEDRQMLFNLLKKEAT | -0.879
42 | HMNLLGERIREIRMEMGLTAKELAQRASVTPGYISQIEHDQIKPSMNVMMRIAEVLNVPMAALLM | ≥ 0.43
43 | HMPAKDAEFTAFVRSATPTLTRTAYLLTGDRETASDLVQEAFVRTYLAWRRVRPEEATAYTRRVLVN | 0.22
44 | HMAEAAVELSQQILARLLEAGGSLPLSDKSSPEDIHRLFGVSKRTFKKAIGGLYKKGLILIHPERIELP | -0.0448
45 | HMKDESQLVGAEGKAVTPLRPTGVALIGEKRLDVLTEGEFIPRNSDIIVSRVEGNKIIVKLKN | 0.22
46 | HMEFEKYKYHYIFDDVLGLRIVWDRGKEHFSYFVNEELAEKSRKSDKDALEVMFYLEHKRWPEEGELENY | -1.07
47 | HMKPRISMITLGVKDLNKSIEFYGGGLGFPRKKTEPEIAIFKLNGSWLSLYNRGLLAEDANVS | 0.347
48 | HMDSVAKSFLAEIERFLETAGLEPTTLGKQALGDPSFVFDLRKGRSPSTRTIGKLRVWMQQQNALS | -1.24
49 | HMNNSVAYSTFLNDIRTNTLKDVDMTSNSETINVTKKDGTKYQTVMPMYDRDLLADLSKTDATVTGQP | -0.155
50 | HMDPYEYQLELEKLINNATELNKKYNYDPLKDKILAADAVKNSLETYVLQNYIVALENEIKQTLNQYQIL | -0.754
51 | HMSNVDYSQFKKDTVVEHTKFGRGIIIQTSGDGEDKIAAIAFKGLGVKRFSLAIAAASLKIIGKNDE | 0.194
52 | HMEEVVIPDLAGLTEEEATKVLMAKELKLKVSGSQHSDIEKGLIISQDPPAGEKGAKNSQVAVVTSSG | -0.000599
53 | HMKVNIGDQVYNQMKDQIMSGVWVPGEKIPSENQLMEVFGVSRGTVRQAIQKLSAVGLLETRRGEGSYVGQ | -0.0128
54 | HMDDATTQLADRLLDLRRKAGYSQEQLADLLGVSRQAISKWEGAQGRPEVDNVVKLAQIYRVSTDFILTGS | -0.656
55 | HMAGTELASIKEIQSLVDRSEEALSARNFFWPKDKSESMLLSFRNMFSRLKLTKMDVQIFHGIFKVMEKS | 0.0341
